9 molecules from patent publication US20240084003A1 (SIMCERE ZAIMING PHARMACEUTICAL, published 2024) can be followed below.

One experiment addresses T1, human CD22 domain5-7-His (human, UniProt P20273 414-687).
T1 construct: also called hCD22 domain5-7-His; not shown: His tag
T1 sequence: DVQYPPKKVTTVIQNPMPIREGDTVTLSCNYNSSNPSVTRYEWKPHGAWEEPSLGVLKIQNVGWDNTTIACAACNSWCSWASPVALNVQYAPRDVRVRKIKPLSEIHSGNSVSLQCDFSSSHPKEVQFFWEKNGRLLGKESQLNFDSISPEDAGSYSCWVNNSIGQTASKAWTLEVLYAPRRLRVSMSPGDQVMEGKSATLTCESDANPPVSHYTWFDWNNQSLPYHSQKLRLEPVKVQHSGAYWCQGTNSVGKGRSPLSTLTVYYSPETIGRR
Briefly: ELISA, plate coated with human CD22 domain5-7-His.

In experiment [1] the target is T2, human CD22-ECD-His protein (human, UniProt P20273 20-687).
T2 construct: Recombinant, from HEK293E cells; also called hCD22-ECD-His; human CD22-His protein; not shown: His tag
T2 sequence: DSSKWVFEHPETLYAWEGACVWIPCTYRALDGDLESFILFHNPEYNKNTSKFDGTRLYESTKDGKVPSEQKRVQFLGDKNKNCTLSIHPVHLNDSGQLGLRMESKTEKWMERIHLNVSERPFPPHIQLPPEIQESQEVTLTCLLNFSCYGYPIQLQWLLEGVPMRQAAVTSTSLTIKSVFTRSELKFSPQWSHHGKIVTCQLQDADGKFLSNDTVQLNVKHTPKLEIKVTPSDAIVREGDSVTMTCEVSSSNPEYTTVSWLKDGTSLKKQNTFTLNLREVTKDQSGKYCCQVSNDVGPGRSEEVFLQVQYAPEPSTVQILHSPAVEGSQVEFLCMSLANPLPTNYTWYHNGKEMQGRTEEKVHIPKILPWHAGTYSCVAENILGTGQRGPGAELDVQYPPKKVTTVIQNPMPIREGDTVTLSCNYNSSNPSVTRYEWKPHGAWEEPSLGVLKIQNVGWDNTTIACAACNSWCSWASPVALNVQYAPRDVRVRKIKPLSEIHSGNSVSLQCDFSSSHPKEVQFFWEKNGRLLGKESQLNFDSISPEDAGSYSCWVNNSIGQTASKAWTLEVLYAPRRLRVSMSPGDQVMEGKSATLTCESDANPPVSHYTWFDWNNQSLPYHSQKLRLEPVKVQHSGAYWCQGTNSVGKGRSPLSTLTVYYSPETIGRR
Briefly: SPR (Biacore), antibody captured on Protein A chip, CD22-ECD-His in solution. On the procedure:
Sample buffer and running buffer were HBS-EP+(10 mM HEPES, 150 mM NaCl, 3 mM EDTA, 0.05% surfactant P20) (GE Healthcare; BR-1006-69). The flow-through cell was set to 25° C. The sample block was set to 16° C. Both were pretreated with the running buffer. In each cycle, the antibody to be tested was first captured with a Protein A chip, then a single concentration of CD22 antigen protein was injected. The binding and dissociation process of the antibody and the antigen protein was recorded, and finally Glycine pH 1.5 (GE Healthcare; BR-1003-54) was used to complete chip regeneration. Binding was measured by injecting different concentrations of recombinant human CD22-ECD His protein in solution for 240 s with a flow rate of 30 μL/min. The concentration started from 200 nM (see the detailed results for the actual concentration in the test) and was diluted at 1:1, making a total of 5 concentrations. The dissociation phase was monitored for up to 600 s and was triggered by switching from sample solution to running buffer. The surface was regenerated by washing with a 10 mM of glycine solution (pH 1.5) for 30 s at a flow rate of 30 μL/min. Bulk refractive index difference was corrected by subtracting the response obtained from the goat anti-human Fc surface. Blank injection was also subtracted (=double reference). For calculation of apparent KD and other kinetic parameters, Langmuir 1:1 model was used.

The target of experiment [2] is T3, rhesus monkey CD22-ECD-His protein (rhesus monkey, UniProt H9G1X2 18-686).
T3 construct: extracellular domain; also called monkey CD22 protein
T3 sequence: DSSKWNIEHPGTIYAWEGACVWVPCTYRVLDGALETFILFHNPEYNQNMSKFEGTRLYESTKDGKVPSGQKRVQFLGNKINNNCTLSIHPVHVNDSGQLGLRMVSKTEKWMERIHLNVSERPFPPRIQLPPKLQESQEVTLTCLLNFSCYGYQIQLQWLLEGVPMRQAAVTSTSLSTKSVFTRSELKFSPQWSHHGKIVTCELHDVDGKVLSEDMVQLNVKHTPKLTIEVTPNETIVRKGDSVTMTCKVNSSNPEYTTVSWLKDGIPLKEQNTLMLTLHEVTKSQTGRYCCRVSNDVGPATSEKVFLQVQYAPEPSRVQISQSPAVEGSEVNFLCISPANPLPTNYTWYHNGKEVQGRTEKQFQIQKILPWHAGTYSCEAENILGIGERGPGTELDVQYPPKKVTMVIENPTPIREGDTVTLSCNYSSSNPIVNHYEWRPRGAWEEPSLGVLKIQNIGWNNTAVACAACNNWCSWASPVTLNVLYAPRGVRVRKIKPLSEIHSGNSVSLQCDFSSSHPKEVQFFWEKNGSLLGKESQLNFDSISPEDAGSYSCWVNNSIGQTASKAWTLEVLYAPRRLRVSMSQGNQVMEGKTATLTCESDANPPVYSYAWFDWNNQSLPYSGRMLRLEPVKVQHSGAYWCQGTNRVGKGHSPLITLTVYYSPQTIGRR
In words: SPR (Biacore), antibody captured on Protein A chip, rhesus CD22 in solution. (SPR reads the build-up and loss of mass on a sensor chip optically.)

For orientation: Kd means the equilibrium constant for the complex coming apart. Usually koff stands for a measure of how fast the partners let go of each other. Usually kon stands for the second-order rate constant of association.

B1: F1.216.2 (antibody, human IgG1, kappa, V domains shown)
VH: QVQLQQSGPEVVRPGASVKISCKASGYAFSSSWMNWMKQRPGKALEWIGRIYPGDGDTNYSGEFKVKATLTADKSSSTAYMQLSSLTSEDSAVYFCAREGSYYSNPWYFDYWGQGTTLTVSS
VL: DVLVTQTPLSLPVSLGDQASISCRSSQSIVQSNGDTYLEWYLQKPGQSPKLLIYKVSNRFSGVPDRFSGSGSGTDFTLKISRVEAEDLGVYYCFQGSHVPFTFGSGTKLEIKR
notes: Chimeric IgG1 kappa
With B1, the binding result with human CD22 domain5-7-His is recorded as “no binding”. In experiment [1], the affinity, expressed as Kd, was 25.3 nM; the koff was 0.000944 s⁻¹; the association rate constant (kon) worked out at 37300 M⁻¹ s⁻¹. Moreover, in experiment [2], the dissociation constant Kd is 7.18 nM, the koff turned out to be 0.000538 s⁻¹ and the kon was determined as 74900 M⁻¹ s⁻¹.

B2: F1.120.15 (antibody, human IgG1, kappa, V domains shown)
VH: QVQLQQSGPELVKPGASVKISCKASGNAFSNSWMNWVKQRPGKGLEWIGRVYSEDGDTQYNGKFRDKATLTADRSTSTAYMQLSSLTSEDSAVYFCARWLIYYGTYGAMDYWGQGTSVTVSS
VL: DIQMTQTTSSLSASLGDRVTISCRASQDINNYLNWYHQKPDGTVKLLIYFTSRPYSGVPSRFSGSGSGTDYSLTISNLEQEDIATYFCQQGNTLPWTFGGGTKLEIKR
notes: Chimeric IgG1 kappa
For the molecule B2, in the experiment with human CD22 domain5-7-His, the binding result is given as “no binding”. In experiment [1], this molecule yielded a Kd of 19.5 nM, a koff of 0.000232 s⁻¹ and a kon of 11900 M⁻¹ s⁻¹. In experiment [2], this molecule came in with a Kd of 15.1 nM, an off-rate constant (koff) of 0.000637 s⁻¹ and an association rate constant (kon) of 42100 M⁻¹ s⁻¹.

B3: F1.250.16 (antibody, human IgG1, kappa, V domains shown)
VH: QVQLQQSGAEQVKPGASVKMSCKASGYTFTTYPIEWMKQNHGESLDWIGNIHPYNDDTEYNEKFKGKATLTVEKSSNTVFLELSRLTSDDSAVYYCVRGDYYNSRYWYFDVWGTGTTVTVSS
VL: DIVMTQSQKFMSTTVGDRVSITCKAGQNVRTAVAWYQQKPGQSPKLLIYSASTRYIGVPERFTGSGSGTDFTLTITNMQSEDLADYFCQQYSSFPLTFGTGTKLELKR
notes: Chimeric IgG1 kappa
In the case of B3, the binding result with human CD22 domain5-7-His was “no binding”. Moreover, in experiment [1], the Kd was determined as 1.44 nM, the dissociation rate constant (koff) was found to be 0.000607 s⁻¹ and the on-rate (kon) is 422000 M⁻¹ s⁻¹. Moreover, in experiment [2], binding was put at a Kd of 3.48 nM, the koff turned out to be 0.00127 s⁻¹ and the on-rate (kon) is 366000 M⁻¹ s⁻¹.

B4: F2.343.16 (antibody, human IgG1, lambda, V domains shown)
VH: QVQLKQSGPGLVQPSQSLSITCTVSGFSLTGYGVQWVRQSPGKGLEWLGVIWGGGGTDYNAAFISRLNIIKDNSKSQVFFKMNSLQADDTAIYYCARYSKYGHFDVWGTGTAVTVSS
VL: QAVVTQESALTTSPGETVTLTCRSSTGAVTTSNYANWVQEKPDHLFTGLIGGTYNRVPGVPARFSGSLIGDKAALTITGAQTEDEAIYFCALWYSNHFWVFGGGTKLTVLG
notes: Chimeric IgG1 lambda
For the molecule B4, the binding result with human CD22 domain5-7-His was “no binding”. Also, in experiment [1], the dissociation constant Kd is 4970 nM, the dissociation rate constant (koff) came out at 0.101 s⁻¹ and the kon was 20400 M⁻¹ s⁻¹.

B5: F1.17.1 (antibody, human IgG1, kappa, V domains shown)
VH: QVQLKESGPGLVAPSQSLSITCTVSGFSLSRYTVHWVRQPPGKGLEWLGMIWGGGSTDYNSALKSRLSISKDNSKSQVFLKMNSLQTDDTAMYYCARPHDFDAGGFAYWGQGTLVTVSA
VL: QIVLTQSPAILSTSPGEKVTMTCSASSRVNYMYWYQQKPGSSPRLLIYDTSNLASGVPVRFSGSGSGTSYSLTISRMEAEDAATYYCQQWTSYPLTFGAGTKLELKR
notes: Chimeric IgG1 kappa
Regarding B5, the binding result with human CD22 domain5-7-His is recorded as “no binding”. Further, in experiment [1], binding was put at a Kd of 2.07 nM, the off-rate constant (koff) turned out to be 0.000498 s⁻¹ and the kon is 241000 M⁻¹ s⁻¹. Further, in experiment [2], the equilibrium dissociation constant (Kd) is 3.67 nM, the koff is 0.000531 s⁻¹ and the kon worked out at 144000 M⁻¹ s⁻¹.

B6: F1.224.1 (antibody, human IgG1, kappa, V domains shown)
VH: EVLLHQSGPELVKPGASVKISCKASGYTFTDFNMDWVRQRHGQSLEWIGDVNPNNGGTIYNQKFKGKATLTVDKSSSTVYMDLRSLTSDDTAVYYCVRLGTSDYGEAWFISWGQGTVVTVSA
VL: DIVLTQSPASLAVSLGQRATISCRASQSVSTPRYSFMHWYQQKPGQPPKLLIKYASNLESGFPARFTGSGSGTDFTLNIHPVEEEDTAAYYCQQSWAIPWTFGGGTKLEIKR
notes: Chimeric IgG1 kappa
Turning to B6, in the experiment with human CD22 domain5-7-His, the binding result is listed as “no binding”. In experiment [1], this molecule gave a Kd of 13.8 nM, a koff of 0.000267 s⁻¹ and an on-rate constant (kon) of 19400 M⁻¹ s⁻¹. In experiment [2], this molecule registered a Kd of 2.04 nM, a koff of 0.000107 s⁻¹ and an on-rate (kon) of 52300 M⁻¹ s⁻¹.

B7: F2.205.9 (antibody, human IgG1, lambda, V domains shown)
VH: QVTLKESGPGILQPSQTLSLTCSFSGFSLSTSGMGVGWIRQPSGKGLEWLAHIWWDDDEYYNPALKSRLTISKDTSKNQVFLKIANVDTADTATYYCARISIPYGYYDWFFDVWGTGTTVTVSA
VL: QAVVTQESALTTSPGETVTLTCRSSTGAVTTRNYANWVQEKPDHLFTGLIGGTNNRAPGVPARFSGSLIGDKAALTITGAQTEDEAIYFCALWYSNHFIFGSGTKVTVLG
notes: Chimeric IgG1 lambda
On to B7, for which the binding result with human CD22 domain5-7-His is on record as “no binding”. In addition, in experiment [1], the Kd worked out at 1.57 nM, the off-rate constant (koff) amounted to 0.000386 s⁻¹ and the on-rate (kon) came out at 246000 M⁻¹ s⁻¹. In addition, in experiment [2], the Kd was determined as 10.3 nM, the koff came to 0.0014 s⁻¹ and the kon stood at 135000 M⁻¹ s⁻¹.

B8: F1.172.13 (antibody, human IgG1, kappa, V domains shown)
VH: QVTLKESGPGILQSSQTLSLTCSFSGFSLSTSGMGVSWIRQPSGKGLEWLAHIYWDDDKRYNPSLKSRLTISKDTSRNQVFLKITSVDTADTATYYCARAPPPNWDEYYFDYWGQGTTLTVSS
VL: DIQMTQSPASLSASVGETVTITCRASGNIHNSLAWYQQKQGKSPQLLVHNAKTLADGVPSRFSGSGSGTQYSLKINSLQPEDFGSYYCQHFWSTPPFGGGTKLEIKR
notes: Chimeric IgG1 kappa
In the case of B8, the binding result in the experiment with human CD22 domain5-7-His is reported as “no binding”. Further, in experiment [1], the affinity, expressed as Kd, was 17.6 nM; the koff came out at 0.00539 s⁻¹; the kon worked out at 306000 M⁻¹ s⁻¹. In experiment [2], this molecule displayed a Kd of 6.9 nM, a koff of 0.00138 s⁻¹ and an on-rate (kon) of 200000 M⁻¹ s⁻¹.

B9: F1.267.9 (antibody, human IgG1, kappa, V domains shown)
VH: EVQLQQSGPVLVKPGASVKMSCKASGYTFTDFYMNWAKQSHGKSLEWVGVINPYNGGINYNQKFKGKATLTVDKSSSTAYMEFNSLTSEDSAVYYCARRMEYHAMDYWGQGTSVTVSS
VL: DIVLTQSPASLAVSLGQRATISCRASESVDNYGFDFIHWYQQKPGQPPKLLIYRASNLESGIPARFSGSGSRPDFTLTINPVETDDVATYYCQQSIKDPWTFGGGTKLEIKR
notes: Chimeric IgG1 kappa
As for B9, in the experiment with human CD22 domain5-7-His, the binding result is listed as “no binding”. For the same molecule, in experiment [1], the dissociation constant (Kd) amounted to 40.9 nM, the off-rate (koff) was found to be 0.000223 s⁻¹ and the on-rate constant (kon) was determined as 5440 M⁻¹ s⁻¹. Besides, in experiment [2], the Kd turned out to be 2.25 nM, the dissociation rate constant (koff) turned out to be 6e-05 s⁻¹ and the kon was determined as 26700 M⁻¹ s⁻¹.
